Paper PMC3882260

Molecular target: Flag-NEO1 (UniProt Q92859)
Assay: immunostaining of cells or tissue; plate-based cell binding in 384-well plates: transfected COS-7 cells, blocked with PBS 1% BSA, CBLN4-Fc for 1 h on ice, fixed, detected with Alexa Fluor-488 anti-human IgG; candidate screen, titration series and DCC domain mapping

Sequence of Flag-NEO1 (Q92859 34-1461): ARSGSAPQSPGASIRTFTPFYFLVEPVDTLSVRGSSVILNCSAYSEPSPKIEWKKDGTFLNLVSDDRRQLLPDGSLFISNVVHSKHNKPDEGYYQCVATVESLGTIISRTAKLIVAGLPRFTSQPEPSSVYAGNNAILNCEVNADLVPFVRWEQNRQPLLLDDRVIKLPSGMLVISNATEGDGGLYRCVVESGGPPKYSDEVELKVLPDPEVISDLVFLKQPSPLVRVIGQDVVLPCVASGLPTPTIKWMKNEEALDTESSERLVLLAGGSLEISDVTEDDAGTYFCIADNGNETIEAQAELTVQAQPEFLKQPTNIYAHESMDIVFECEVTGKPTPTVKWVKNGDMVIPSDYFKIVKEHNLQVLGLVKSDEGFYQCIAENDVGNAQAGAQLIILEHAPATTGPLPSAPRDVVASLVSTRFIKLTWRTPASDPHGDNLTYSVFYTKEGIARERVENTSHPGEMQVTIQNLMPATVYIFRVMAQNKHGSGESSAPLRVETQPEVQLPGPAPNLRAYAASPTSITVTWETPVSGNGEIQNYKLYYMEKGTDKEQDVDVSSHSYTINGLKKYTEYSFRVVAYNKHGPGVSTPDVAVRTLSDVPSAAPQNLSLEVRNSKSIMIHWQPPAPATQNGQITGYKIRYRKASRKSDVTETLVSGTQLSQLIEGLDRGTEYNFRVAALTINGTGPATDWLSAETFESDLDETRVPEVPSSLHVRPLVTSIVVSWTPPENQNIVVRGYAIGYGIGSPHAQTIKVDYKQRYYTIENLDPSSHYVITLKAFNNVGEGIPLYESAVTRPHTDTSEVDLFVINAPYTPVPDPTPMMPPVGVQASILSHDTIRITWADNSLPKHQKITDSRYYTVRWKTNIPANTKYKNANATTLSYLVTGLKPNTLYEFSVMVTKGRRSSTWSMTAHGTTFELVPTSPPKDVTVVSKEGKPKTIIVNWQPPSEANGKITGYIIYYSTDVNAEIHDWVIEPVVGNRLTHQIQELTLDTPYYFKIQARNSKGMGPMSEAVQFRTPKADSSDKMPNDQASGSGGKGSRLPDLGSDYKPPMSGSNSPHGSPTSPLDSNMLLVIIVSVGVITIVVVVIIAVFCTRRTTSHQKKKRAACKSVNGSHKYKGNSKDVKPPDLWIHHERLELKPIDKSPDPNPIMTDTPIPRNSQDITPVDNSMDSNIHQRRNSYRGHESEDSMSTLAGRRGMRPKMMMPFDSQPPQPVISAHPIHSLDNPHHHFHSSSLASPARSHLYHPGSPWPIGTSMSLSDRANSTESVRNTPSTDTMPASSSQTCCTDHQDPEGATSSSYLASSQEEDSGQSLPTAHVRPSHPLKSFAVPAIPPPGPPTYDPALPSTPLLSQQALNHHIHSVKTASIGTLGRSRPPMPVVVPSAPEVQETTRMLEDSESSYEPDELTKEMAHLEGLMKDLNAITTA

lowest CBLN4-Fc concentration at which binding was detected: 280 nM
Substance: human CBLN4 (M1-L201) with a C-terminal Fc tag (from UniProt Q9NTU7 28-201) (Fc fusion)
